Assay results as given in paper PMC4531439, “New insights into the molecular mechanism of the Rab GTPase Sec4p activation” (BMC Structural Biology, 2015).

Molecular target: the molecule itself
Test: cell-based or functional assay

B1: Sec2p (51–142) (domain or fragment, UniProt P17065 51-142, looked up)
chain: NYNQLKEDYNTLKRELSDRDDEVKRLREDIAKENELRTKAEEEADKLNKEVEDLTASLFDEANNMVADARKEKYAIEILNKRLTEQLREKDT
How did the “mantGDP dissociation rate from Sec4p(19-187) stimulated by 500 nM Sec2p(51-142), compared with Sec2p(1-160)” value turn out when B1 was run?
Its value is 20 fold slower than Sec2p 1-160.
